From the DeepSol protein solubility set

Assay: soluble on expression in E. coli; label from the status in PepcDB or PDB records

Sequence	soluble on expression in E. coli
MSKDIRTVRPPVQLLPKAIIAVRPASTAKADLEVMAAQVAQLTTACCQENIQVDSIIITFGGIKDITKRVKQLTEQKDISYLIIYSGKQIAENESEYVNFKRDMQDWYYLKVVCYR	not soluble
MSKGFAFKPSALAAKADKLWSDSKTEYTATHSTINHVHLEKKSLGDIIPKSADAPVANEKEVEEAPQAFVFGSKISDRVVNKEGDSTKPGGSDEKTMTATELFQNAVKKDDDKNGAKNFRKEAEQEAERAKEAEKQHAGTSSVEITTGEENDTNIFQAPCKIWAFDKLKNAYSEKGVCNLRINKRVENGLTHHRIVARTSSGTLRVIINSKIFSDMLLERVDKRIRISAMGPEISGVQIFLLKIGFTKTETIPDSDIFYNIMSDLLKLEKGENSRKRKADCDLNASTVKIKDGKEEEEGDQDQVDEGFVIVNKPTEDEVKEEKPAVTAAEESASSSTPSE	not soluble
MSKIASEVVATTLNDWYIAIKKQKVDESIKYYSEIKKLFDEMEEDQEVLAYYSLLEERHKMLLHSSRGEPLQKHTYFTEDNQNFITKTNDKLEYNFYLFEAMYEAYNKNYDRAINLYGLAEKKLAEIPDEIEAAEFYSKVSYLYTLVKQSIVAQHYIKNAISIYKRHPDYKCKLATSTMIAAANYADMKRFEEAEQYYLEAIDIAKETKDEFLKAQLFHNLSIVYSDWNKPDKCIESLEKAIGNESWLHSIYYINSLFMMIKELFKIDEKMKAINFYNKAQERLILMENKVYEAKISILYNLYCGELKNNFNNCISNIEFLKQQNELESVDELSYIAAKRFESIGAFEEATSFFNAKIWAEQKMNQVEGIL	not soluble
MSKKEETIFFRIEKENRPESSKKEEDENSTEEMTTLNHASVTLDHSAFAIADKDGFKMYQLNPLHFRMYKDYVIKVGPVRLVKQDGNSRRIIYVSALAGGRFAQNNLMIFDVARNEEYFEITTPSRYGPITNIHVSPNRLVALNPNRMFVWTYPDDIKQIRSEDIRSNPKGISAMSYDPTTAACYLAYPGFKTGSVQIMHLNALTARESKSPIVIEAHLTDIAQVALNCQGTLVATGSTKGTVIRVFDARTKGPLYELRRGTVQAHLQCMAFSPCSSYLAVASDKGTLHMFGIRDAEPQKKKNVLERSRGSSSIVKIQLDRPVMAIGFGKIPETPKNLQSIIAICADATYWRHEFYKDNTGNFTSHFGSYDELIEVANDSSFFRTPVE	not soluble
MSKLKKKEYEQELKKLQVELVKLQEWVKHKGLKVVVLFEGRDAAGKGGVIKRITEKLNHRVCRVVALPAPTEKEKTQWYFQRYVAHLPSAGEIVLFDRSWYNRAGVEKVMGFCTPDEYEEFLRSCPEFERMLQRSGIILLKYWFSVSDEEQEKRFLGRINTPIKRWKFSPMDLESRHRWAEYSEAKDKMFAYTDTKNCPWWVVPSDSKQKARLNCISHLLSQIEYKALEYPPIELPEINKEGYVRAPIDDQTFVPDKY	not soluble
MSKLRFRVVETAFKKKAVEVATPAERPSEYFGKYVFNKEKMFKYLPSKVYNALIDAIDNGAPLDRSIADEVAAGMKKWAVEMGVTHYTHWFAPLTEGTAEKHDAFVEHDGKGGMMEEFTGKLLVQQEPDASSFPNGGIRNTFEARGYSAWDPSSPAFIVDDTLCIPTVFIAYTGEALDYKAPLLKALRAVDKAATAVCHYFNPEVKKVVAYLGWEQEYFLVDEGLYAARPDLLMTGRTLMGHDSAKNQQLEDHYFGAIPTRVAAFMKDLEIEALKLGIPVKTRHNEVAPNQFELAPIFEECNLANDHNLLIMSLMRKVSRRHGFRVLLHEKPFKGVNGSGKHNNWSLGTDTGILLMGPGKTPEDNLRFVTFVVNTLMAVYRHNGLLKASISSATNAHRLGANEAPPAIISSFLGKQLSQVLDHIENSTKDDLINLSGKQGMKLDIPQIPELLIDNTDRNRTSPFAFTGNRFEFRAVGSEANCASAMIALNAAVAEQLMKFKKDVDALIEKGEPKVSAILEVIRGYIKECKAIHFDGNGYSDEWKVEAARRGLDCETSVPVIFDNYLKPETIAMFEAIGVMTKKELEARNEVKWETYTKKIQIEARVLGDLAMNHIIPVATQYQTDLINNVYKMQSLFPADKAARLSAKNLELIEEIADRTAFIKEHVDAMIEARKVANKIESEREKAIAYHDTIVPALEEIRYHIDKLELIVDNQMWTLPKYRELLFVR	soluble
MSKLVYLLLMIFFLNPAWANTHYHQHPVSPLANALRTGTDTNGNALYLCRAKLFNSIQPGKTWAGYGRCNVPYGGKEYVLSQFTIPNQNEFGRYSWEPNVEHALLMGKDTNGNPLFVCQSNFNGSIQPGKTWPGYSHCNISYGGREIITDNYRILSRPTEIIVRTQPPVHRHPSQNRHYHYLEHHHHHH	soluble
